# T1: binding of Npw38 to NpwBP(P2)-GFP (Homo sapiens, UniProt O60828)
# T1 construct: expressed in transfected cells; host or cells: COS7 (monkey kidney)
# T1 sequence (O60828 1-265): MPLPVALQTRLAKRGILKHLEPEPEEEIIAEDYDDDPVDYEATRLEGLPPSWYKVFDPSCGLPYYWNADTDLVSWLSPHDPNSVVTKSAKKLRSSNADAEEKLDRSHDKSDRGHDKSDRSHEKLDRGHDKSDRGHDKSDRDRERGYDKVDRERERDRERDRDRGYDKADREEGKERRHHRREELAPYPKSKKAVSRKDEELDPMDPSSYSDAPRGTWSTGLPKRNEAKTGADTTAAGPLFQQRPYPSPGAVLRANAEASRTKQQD
# T2: Npw38 (Homo sapiens, UniProt O60828, W52A)
# T2 construct: expressed in transfected cells; host or cells: COS7 (monkey kidney)
# T2 sequence (O60828 2-265 W52A): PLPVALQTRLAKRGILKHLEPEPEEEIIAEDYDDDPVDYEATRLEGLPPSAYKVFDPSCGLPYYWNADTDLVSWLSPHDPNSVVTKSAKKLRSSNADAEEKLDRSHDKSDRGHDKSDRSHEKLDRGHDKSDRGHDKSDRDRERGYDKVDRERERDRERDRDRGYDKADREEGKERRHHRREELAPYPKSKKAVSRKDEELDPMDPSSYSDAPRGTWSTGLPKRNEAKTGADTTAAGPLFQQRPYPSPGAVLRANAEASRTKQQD
# Experiments:
# [1] = molecular target: T1, binding of Npw38 to NpwBP(P2)-GFP; assay: Detection of binding-inhibitory action on intranuclear localization of NpwBP(P2)-GFP; format: cell-based; settings: COS7 cells, NpwBP of more than NpwBP(P2)-GFP co-expressed along with Npw38 and NpwBP(P2)-GFP
# Experimental: (§1) Monkey kidney-derived, cultured cell COS7 was incubated in a 10% fetal calf serum-containing Dulbecco's modified Eagle's medium (DMEM) in the presence of 5% CO2 at 37° C. COS7 cells of 1=10^5 were placed in a 6-well plate (from Nunk, having a well diameter of 3 cm), and further incubated therein in the presence of 5% CO2 at 37° C. for 22 hours. After the medium was removed, the cell sur were washed with a phosphate buffer solution (PBS), and then further washed with a 50 mM Tris-HCl (pH 7.5)-containing DMEM. To these cells, added was a suspension comprising 1 μl of a plasmid suspension, 0.6 ml of DMEM and 3 μl of TRANSFECTAM™ (from IBF), and incubated in the presence of 5% CO2 at 37° C. for 12 hours. Then, the cells were washed with PBS, and fixed with 4% peraformaldehyde-containing PBS at room temperature for 10 minutes. The thus-fixed cells were washed with PBS, then treated with 0.2% Triton X-100, and thereafter blocked with 5% milk PBS. This was reacted with an anti-HA antibody for 45 minutes, then washed with PBS, and reacted with a rhodamine-binding secondary antibody for 45 minutes.
# In the system of the above (2), NpwBP of more than NpwBP(P2)-GFP was co-expressed in the cells along with Npw38 and NpwBP(P2)-GFP. In this case, the intranuclear localization of NpwBP(P2)-GFP was inhibited. […]
# [2] = molecular target: T2, Npw38; assay: Npw38-NpwBP binding detection by intracellular localization of GFP fluorescence in COS7 cells; format: cell-based; settings: expressed in place of HA-Npw38 together with NpwBP-GFP
# Experimental: as §1, with “45 minutes. […]” for “45 minutes.”
# First, pKA1-NpwBP(P1)-GFP or pKA1-NpwBP(P2)-GFP was singly introduced into COS7 cells, and the localization of these fusion proteins in the cells was checked through fluorescence microscopy based on the green fluorescence of GFP as the index thereof. […]
intranuclear localization of NpwBP(P2)-GFP [1],intranuclear localization of the green fluorescence of NpwBP-GFP [2],Molecule
inhibited,,"NpwBP: nuclear protein (SEQ ID NO: 2) that binds to Npw38 (protein, listed as Homo sapiens) MGRRSTSSTKSGKFMNPTDQARKEARKRELKKNKKQRMMVRAAVLKMKDPKQIIRDMEKLDEMEFNPVQQPQLNEKVLKDKRKKLRETFERILRLYEKENPDIYKELRKLEVEYEQKRAQLSQYFDAVKNAQHVEVESIPLPDMPHAPSNILIQDIPLPGAQPPSILKKTSAYGPPTRAVSILPLLGHGVPRLPPGRKPPGPPPGPPPPQVVQMYGRKVGFALDLPPRRRDEDMLYSPELAQRGHDDDVSSTSEDDGYPEDMDQDKHDDSTDDSDTDKSDGESDGDEFVHRDNGERDNNEEKKSGLSVRFADMPGKSRKKKKNMKELTPLQAMMLRMAGQEIPEEGREVEEFSEDDDEDDSDDSEAEKQSQKQHKEESHSDGTSTASSQQQAPPQSVPPSQIQAPPMPGPPPLGPPPAPPLRPPGPPTGLPPGPPPGAPPFLRPPGMPGLRGPLPRLLPPGPPPGRPPGPPPGPPPGLPPGPPPRGPPPRLPPPAPPGIPPPRPGMMRPPLVPPLGPAPPGLFPPAPLPNPGVLSAPPNLIQRPKADDTSAATIEKKATATISAKPQITNPKAEITRFVPTALRVRRENKGATAAPQRKSEDDSAVPLAKAAPKSGPSVPVSVQTKDDVYEAFMKEMEGLL"
,no intranuclear localization,Npw38(W52A): a WW domain variant of Npw38 (protein) MPLPVALQTRLAKRGILKHLEPEPEEEIIAEDYDDDPVDYEATRLEGLPPSAYKVFDPSCGLPYYWNADTDLVSWLSPHDPNSVVTKSAKKLRSSNADAEEKLDRSHDKSDRGHDKSDRSHEKLDRGHDKSDRGHDKSDRDRERGYDKVDRERERDRERDRDRGYDKADREEGKERRHHRREELAPYPKSKKAVSRKDEELDPMDPSSYSDAPRGTWSTGLPKRNEAKTGADTTAAGPLFQQRPYPSPGAVLRANAEASRTKQQD

# Reference: patent US20030040012A1, “Method of detecting protein-protein interaction” (priority 2000, published 2003)
